According to a protein production outcome set (Wang et al. 2014):

Assay: label from the status in PepcDB records

Row | Sequence | protein production
1 | MNKMIILLVIAIIFLHMCLIWLWYRYTNNPSVVDVGWASGLTLAGLIYLNNQEFSLRSLLLVLALLTWGIRLGGYLWWTRIRLKKIDKRYLALSNDWKLAKPLGFFLNFQLQGVLICLVSIPWYFSSSETQTALNLLDGLALIIFLTALILETVADNQLQDFKKNYPGKVCNQKLWRYCRHPNYFYEWLVWCSFTLFALSAPYGWIAIISPLTLYLIMTKITAPMTEQGSIESRGNLYIEYQKVTPMFFPKWLKNNSTPRK | failed
2 | MNKNLSEKMKIAFDIKLKNFGNKIEFAYPNQTLALSTTSNQCSLKCAHCNGHYLNNMVPIEEYEEKVQSRNITSFLLSGGCSYEGDVPINTHINTIKNLKEQGYRLNAHLGLMDKDSIVELCKYLDIVSFDLVFDDETIREVYKMKKSKEDYIEVYNTIQEHTEVAPHICIGLKGGQIKGEYEIIEYLQKNPPNKLTFIVLIPTKGTEYENVEPPELEGVADILCEARINLPDTEINLGCMRPRGVYRKELDQLSIMCGVNRIVLPSRSAKNKAIEMNMTINECKECCVL | failed
3 | MNKQSAAVLMVMGSALSLQFGAAIGTQLFPLNGPWAVTSLRLFIAGLIMCLVIRPRLRSWTKKQWIAVLLLGLSLGGMNSLFYASIELIPLGTAVTIEFLGPLIFSAVLARTLKNGLCVALAFLGMALLGIDSLSGETLDPLGVIFAAVAGIFWVCYILASKKIGQLIPGTSGLAVALIIGAVAVFPLGATHMGPIFQTPTLLILALGTALLGSLIPYSLELSALRRLPAPIFSILLSLEPAFAAAVGWILLDQTPTALKWAAIILVIAASIGVTWEPKKMLVDAPLHSKCNAKRRVHTPS | failed
4 | MNKRNTQQRRHSIISILNEQGEVSVDELSLRFETSEVTIRKDLAELEKTGLLLRRYGGAVAIPDEVTQQFSAKIAPNKLSIAKAAAQLIKDHNRIIIDSGTTTSGLIAELNQKRGLVVMTNALHLANAIHELENEPTLLMTGGTWDPHSESFQGQVAEQVLRSYNFDQLFIGADGIDLARGTTTFNELTGLSKVMAEVSREVIVMVDSDKIGKRIPNLELPWSKISVLVTDARIEESALKQITEQGVKVILAPYSP | failed
5 | MNKRVQAFLAKMQEKELDGIIINNLKNVYYLTGFWGSNGTVFISRDRQVLVTDSRYIIAAKQETSGFEIVADRDELAVIAGIVKDMGLTRIGFEDEISVSYYHRMQAAFAGLNLLPQTQFVEGLRMIK | failed
6 | MNKTELIKNVAQNAEISQKEATVVVQTVVESITNTLAAGEKVQLIGFGTFEVRERAARTGRNPQTGEEMQIAASKVPAFKAGKELKEAVK | not failed
7 | MNKWAILSLACVPYALLTIVNEDTLEIGGSANIFWKIGLFAPLIGVLFSAGASKTYQRVMLALFNLSYYFVLYIYMIYTF | failed
8 | MNLAQSNREIVELLVPIIVGYMSLFISSIFVYRIGKIILRRDSISLISAIIFLLNPSTIFCLLYSPKNYGFASVGYYFVPLLYLMSYYYYLKKDWKKFTAFTVALTLTSPLSYLIAITFIVYLLIRNRIDEKSLSWSLLRENKISLVLILVSLIIGVLVIPQTLQHFSSLLIASIYPQYTSLNYIYDNVYFKLTYWFILFGVFSFLPIFSPLELIPALPYLLVGLFSSYIPYYSYGYYPYYFLALPMLIMGFIRTINLIKDDKRTMLISYVFIFLFNVALLYVILE | failed
9 | MNLASQSGEAGAGQLLFANFNQDNTEVKGASRAAGLGRRAVVWSLAVGSKSGYKFFSLSSVDKLEQIYECTDTEDVCIVERLFSSSLVAIVSLKAPRKLKVCHFKKGTEICNYSYSNTILAVKLNRQRLIVCLEESLYIHNIRDMKVLHTIRETPPNPAGLCALSINNDNCYLAYPGSATIGEVQVFDTINLRAANMIPAHDSPLAALAFDASGTKLATASEKGTVIRVFSIPEGQKLFEFRRGVKRCVSICSLAFSMDGMFLSASSNTETVHIFKLETVKEKPPEEPTTWTGYFGKVLMASTSYLPSQVTEMFNQGRAFATVRLPFCGHKNICSLATIQKIPRLLVGAADGYLYMYNLDPQEGGECALMKQHRLDGSLETTNEILDSASHDCPLVTQTYGAAAGKGTYVPSSPTRLAYTDDLGAVGGACLEDEASALRLDEDSEHPPMILRTD | failed
10 | MNLDTPLADGLERAKRFEQGLQQVVLGQERPIRLLTLAVFARGHALLEGGVGVGKTTLLRAVARGIGGDYERIEGTIDLMPNDLVYYTYLDEQGRPGVAPGPLLKHGEQLSIFFFNEINRARPQVHSLLLRVMAERSVSAFNREYRFPYLQVFADRNRVEKEETFELPAAARDRFMLEIAIEPPADPAHIDQILFDPRFYDPDRLVASAPADTLSFRELNGIAEALQGGIHVSARLRSYVQDLWRATRRPEDFGIALHEADSGDMIEAGSSPRGMSYLVRLARVQAWLSGRDRVEPEDVQYVFAPAVGHRIFLKPVYEYRRAELIPELVGKLIRRIAAPLEHHHHHH | failed
11 | MNLLPGFAYIEMESISNLTPLVMKTLAGFIAGIPKAELHLHIEGTLEPEMMLALGERNGVPLPYPDADAAKSAYHFSDLQSFLDIYYRATAVLVTEQDFYDLTIAYLQKAVSRKVCHAEIFFDPQSHIARGVPFETVVGGIGQALSDANGGLGISTKLIMCILRHLSEEDGNAVLEQAVRWKRWISGIGLDSSEKGNPPGKFRELFAKARHYGFFTVAHAGEEGNASSISEALDALHVIRIDHGVHCMEDPVLVERLRLDRIPLTICPLSNVRLNVFGSMREHNLKTMLDAGLCVTINSDDPAYFGGYVNENYLAAAEALNLDRNDIIRLARNSFEASVLSNVQKKLYLQKLDHYVDSFIQ | failed
12 | MNLPFAPQSFAALLVMVMTLAHGSVSAQESFRVELGRDGETLGDMRPVFLKFESRPLPAISPLEVARRYQKLFESSDEPEVRIDALNRLNNIRNRSGEDVGFSEEREAAIYEEVLESYESILAKGSFSGRLDELLYQMAKAHALTGQPEQSIARLKQLVGLYPNSELVPEARFRIAEAAFSAGRYAEAEAGYRQLLEHDSHQELAAKARYMLGWSQFKQGNPAWARASASFTAVLDQQLPDHSALANPPAHSMDMLEDTFRVLALMASRQSDARTLADWLDGRESSAWQHLLYDRLADLHAVERRYERAVLVNNAFVSEFPGHTASPDFLAQSVSYWQLAGNTSKALAARDDYIQRLGAEARFQTMTPEQKGLWAQYSRFLADHYYATGTDLSSRNQTAAASEAWAKAAHYYERLAPRSEQAGELLHLAGDARLLAGDRTEAVRNFRAAAYDHRHGDSRDSAWAAIRIVREDLELASGENRTATLLVLSNEEQRYAEAFGPDQRLSGLRADLANRWYDLGEFERALHYASSTLTWERAGVTERYAAWLVTARIRQKNNEFGLAERAWRQALPLADEASQDAESQRRSLLEQLASAIYQQGEKAARAGDATLAVAHFQRVEGVMPGSEIAIKARYDAANTLLRASDWLAAINELQRFRIDYPSHELTPETSEKLVLAYQESGQGLKAAEELLNRSETLADPWPTRLRAAAIFHAEGDSASRNQLYKNWLAVAPTPDSADEHVQHQTMRQRLIESGDSVIAVREQLLARERASQWHSDGTLKWAADAALFFGAQTAERFAGIALVHPLEQALARKQAAMQQAQEYLQEAESFAGDGVRSEVLYRRAELYRTLASDLMSSEVPAELNEMEAMQYQMLLEEEAFPLEEEAMALHARNHERIPTEGFDEWIQRSLEALATMHPGRYDRQLRWMSWTTDTNQGGS | failed
13 | MNLPHLMSLASHLASHGFFCLRFTCKGLNIVHRIKAYKSVLNYLKTSGEYKLAGVFLGGRSMGSRAAASVMCHIEPDDGDDFVRGLICISYPLHHPKQQHKLRDEDLFRLKEPVLFVSGSADEMCEKNLLEKVAQKMQAPHKIHWIEKANHSMAVKGRSTNDVFKEINTQILFWIQEITEMDKKCH | failed
14 | MNLTRLREKILNKSHSAMLIFSDINISYLSTFTGHAATILLTSKGNYLLTDYRYFEQAKTQASHFNVICRDRANQSLASLIEDLLFQDDCQSLSFESEHISVMQWQQIHQQISQLTKLSQIEAVSGAVEALRFIKSTSEISSIEQAAKIADTALAAMLNSVKAGVTERELAIELDYQMAKLGSEEVSFATILLFGERSALPHGIPSDKQLKLGDIILIDFGAVVNGYRSDMTRTFVFGQASAEQKHIYQLVQSAQQAAIDAVYEGVLGSHLYQQSANILLNSEYKKYAGEGLGHGVGLVLHEQPFIGPDCHTTIEKGCVITIEPGIYIPGWGGIRIEDDVVLTDEGLKILTKSPKGLIEL | failed
